{"source": "patent US20120276104A1", "about": "(F STAR BIOTECHNOLOGISCHE FORSCHUNGS UND ENTWICKLUNGSGES M B …, published 2012)", "key": {"[1]": {"target": "T1, HER-2 expressed on human tumor cells (human, UniProt P04626 23-1255)", "T1 construct": "whole, on cells; also called Her-2/neu; HER-2 on SKBR3, BT474 and HCC1954 cells", "assay": "flow cytometry on SKBR3 cells, detection with anti-human IgG-phycoerythrin, MFI against Fcab concentration; flow cytometry, HER-2 on SKBR3 cells", "experimental": "(§1) CM-5 chips are coated with increasing concentrations of recombinant soluble HER-2 protein. […] Then, buffer is injected to measure the off-rate of the binding reaction. The binding affinity (KD) is calculated using the BiaEval software using a 1:1 stochiometry model. […] Unbound Fcab is removed by two washing steps in FACS buffer. Cell bound Fcab is detected by incubation of the cells with polyclonal anti-human IgG antibodies coupled to phycoerythrin (SIGMA) for 30 minutes on ice as recommended by the manufacturer. Again, unbound detection antibodies are removed by two washing steps as above. Fcab binding is enumerated by flow cytometry by plotting the mean fluorescence intensity against the Fcab concentrations (FIG. 1, left panel)."}, "[2]": {"target": "T2, recombinant soluble HER-2 protein (human, UniProt P04626 23-652, limits assumed)", "T2 construct": "Described only as 'recombinant soluble HER-2 protein'; also called recombinant HER-2", "assay": "SPR (Biacore), soluble HER-2 coated on CM-5 chip, Fcab injected at 0.8-25 ug/ml, 1:1 model; SPR, recombinant soluble HER-2 on the chip", "experimental": "as §1"}}, "data": [{"binder": "Fcab H561-4 (other, also called Her-2 specific Fcab clone H561-4) TCPPCPAPELLGGPSVFLFPPKPKDTLMISRTPEVTCVVVDVSHEDPEVKFNWYVDGVEVHNAKTKPREEQYNSTYRVVSVLTVLHQDWLNGKEYKCKVSNKALPAPIEKTISKAKGQPREPQVYTLPPSRDEFFTYWVSLTCLVKGFYPSDIAVEWESNGQPENNYKTTPPVLDSDGSFFLYSKLTVDRRRWTAGNVFSCSVMHEALHNHYTQKSLSLSPGK", "values": [{"measurement": "EC50", "setting": "[1]", "result": 2, "unit": "nM"}, {"measurement": "Kd", "setting": "[2]", "result": 7.5, "unit": "nM"}]}]}
